Experimental data reported in patent EP1417974A1.
Blank lines part the entries; values can stand above or below the molecule they belong to.

Biological target: CD44v6 on antigen-positive FaDu cells (human) (UniProt P16070)
Experiment: flow cytometry (FACS) on antigen-positive FaDu cells, FITC-labeled anti-human IgG detection, on ice

UniProt P16070, sequence (P16070 21-742): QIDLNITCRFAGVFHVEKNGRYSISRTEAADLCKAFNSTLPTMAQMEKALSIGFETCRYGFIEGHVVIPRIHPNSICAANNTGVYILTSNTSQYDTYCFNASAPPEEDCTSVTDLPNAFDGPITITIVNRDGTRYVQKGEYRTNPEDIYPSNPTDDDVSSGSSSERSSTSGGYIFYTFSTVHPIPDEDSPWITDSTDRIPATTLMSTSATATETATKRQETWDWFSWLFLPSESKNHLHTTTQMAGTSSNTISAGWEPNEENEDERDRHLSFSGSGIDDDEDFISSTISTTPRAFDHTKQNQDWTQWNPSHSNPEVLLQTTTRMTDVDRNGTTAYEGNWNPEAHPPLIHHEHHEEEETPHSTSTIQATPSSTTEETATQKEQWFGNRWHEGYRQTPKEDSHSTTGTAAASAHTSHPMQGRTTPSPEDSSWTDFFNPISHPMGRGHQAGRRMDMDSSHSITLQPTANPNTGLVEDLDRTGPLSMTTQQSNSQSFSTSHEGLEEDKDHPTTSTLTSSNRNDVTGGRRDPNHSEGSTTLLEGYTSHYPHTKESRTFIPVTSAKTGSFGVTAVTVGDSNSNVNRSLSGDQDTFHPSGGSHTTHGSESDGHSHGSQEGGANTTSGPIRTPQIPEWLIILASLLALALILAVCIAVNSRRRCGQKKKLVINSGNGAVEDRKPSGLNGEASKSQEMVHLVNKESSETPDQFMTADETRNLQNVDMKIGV

Kd: 1.8 nM
Molecule: BIWI 1 (from UniProt P0DOX5 2-449)

Kd: 1 nM
B1: BIWA 4 (antibody, human IgG1, kappa, V domains shown)
VH: EVQLVESGGGLVKPGGSLRLSCAASGFTFSSYDMSWVRQAPGKGLEWVSTISSGGSYTYYLDSIKGRFTISRDNAKNSLYLQMNSLRAEDTAVYYCARQGLDYWGRGTLVTVSS
VL: EIVLTQSPATLSLSPGERATLSCSASSSINYIYWYQQKPGQAPRLLIYLTSNLASGVPARFSGSGSGTDFTLTISSLEPEDFAVYYCLQWSSNPLTFGGGTKVEIKR
